# Experimental data: the NTF2 design screens of Basanta et al. (2020)
# Assay: protease stability score; higher = more stable; yeast display proteolysis, trypsin and chymotrypsin;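 also: log10 excess protease needed over predicted unfolded state with 0 meaning unfolded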
row,Sequence,protease stability score
1,DEENRHVAQELVKAEKSGDPKRAQELLDPNVRINVGDKTVQGREQHTQELEREKRELRIRIKSMHLKVEGDHVRIEATVSKTQDGQPRESKRSISIHMKNGKAKNIQVTYHK,0.13
2,DEENRKDAEKYMKVTENNNPDEVSKLVDPNAKLEIGDKTYHGDEWMMDQQQQDRDQARIEVKRVDIKVHNGQINARVRFVKEENGKPDRRDVDIKMNIHNGRLKRAQFKHTE,0.064
3,DEENRKIAKKLVEAMHTNDEETLEKMFDPNVRFDVGDREVHGKEQWKREQHKKNREARFEIQRYTISYEGDKAVVRIHQVEDHNGQPREDTYVMHVEVHNGKVKRVVQRKDS,-0.129
4,DEENRKILSEVLQALQEGDEHRVRELMDPNARFQVGDKVITGMDNIKKHLQELKRQIKWHFTMKSISAHDGQARATADAEYNHNGRPQDVRVTFRVVFHNGEVHHFSYDYKP,0.583
5,DEENRKQFEEIVRVWNKGDEKRFNNLFDPNARFRYGDKEYKGNQSLMNWWRHLKKQARVEIDVKEVHVDGDKVHAHFRVTFDINGRPETQDVDVVLTVQNGRAKNFDNRIDPEFMRRVQS,0.141
6,DEENRKVFEEILEAKKRGDPKQLERNVDPNVKIYYGDKDFHGRSQLSKELEKVRRELHLHLDFKRIEYHGDSVDVELKVNQQHNGKPDESDRVFHARLHNGRLEHVDARDRK,-0.019
7,DEENRQLAENFLTAMEDNNPEHLSELADPNAKFHYGNKRIHGREKFMHEVEHRNKRIRYSIKSYKITVSGDKIEIDLTFTFRHNGQPDERRRTIHMQMENGQIRSVEYNDNK,0.337
8,DEENRRNFERLIEAIRTNNPSDVEQLVDPNVRFQVGNEVYNGREQFSKDVERLNRQINITIHVRRLHVHGEKVVVDFTYQQEVNGRPNSHRVKWDATLENGKIKSARNTFDEEFEKELTK,-0.091
9,DEENSEAMKRWFNAMETGDPDKVKEQLDENAKIEVGDKRIHGRDQAREEVRKMLERWEIRIKIDEIDVHGEKVVVKFRQHNDRNGEPDNQTVVFIAIFDNGKATRWLLTTDG,0.289
10,DEENSKVYEEWLKAVHNGDPDQVRRQIDPNVKINVGEFDLKGRETVAEHVKKMKDEAHVDQDIHSIEIQGDKVRVDAQYSAEINGKPTSNHLDASVNVKNGQIKRVDVEFSK,-0.131
11,DEENSRILKELLRAIRRGDEERAKELVDPNAKFQVGNKNVHGRDHWAQELRKEKEKIRFDMHIKHVKVDNGKIKVDLRVQVDVDGRPVTNRVKLTVELHNGRLTHLRVEMDEDQERKLKK,0.366
12,DEENTKVAHEWLRNLERNDPKKLNELADPNAHFNVGDKQVQGMDEFERRIEDKKKEMRMKIDDYKARVHNGHVRVDVIVVIDHNGKPDKKRNVQFFDMENGRISRINQQDTG,-0.164
13,DEENVDRAERLLDALRSGNPNTVRELMDKHVKIQIGDKHLHGREQADKKAEDDSKEINEEVKSVDVKATGNNVVIDMDVSATVDGRPVTFHRVLVIRMHNGKIQEIEIRMSEDDIRNYKK,0.207
14,DEENVDRMEEIIRSGDFKELLELADPNVKVVVGDKEYSGRHVATTVLQSLYEQVDHHKVHSVQNEGETVEFDLKVVVNGQEMRMRFVIVFENGRIKTIQIEFTDPRQEEKFLKNIK,1.08
15,DEENVEAAHRFFEALNTNNPDELVKQFDPNARFRYGDTDIHGREHFRKWVKDQLDQIRFTLTSMTANVHNGKVRIELRFIKHHNGRPRDVNQEVRADVHNGKIKNLSVSDRG,0.563
16,DEENVKIARELLKNRTSGNEEHFKRLVDPNARFNVGDTRIHGREEYVKQVRDDFRNSRESIDVRSVSASGDKVEVDMKMHFEHNGQPRSKKVILDAKIHNGRLKEYRVEEEK,-0.045
17,DEENVKIFEEFLRAEQTNDPERAKELIDKDVRIRVGDKTYHGREEWVNTFEEQQRHLKVHYKHVDNTHRNGRVHVRMTFDAVTNGEPKEVTARVEAEFHNGKAKDIQVEYRG,-0.257
18,DEENVKKVQEQLERNDREKLKSNVDKNAEVRVGDKTYHGREDAKTVLEQLARQVDNMQWQSIRIKGEHIDAKMVVQINGKHIQVSIELTVHNGKISHFVIHARNEEVNETLKEAVD,0.516

row,Sequence,protease stability score
1,DEENVKQAKKFADAMRHGDPEKLAKLADENAKLVIGDKTVHGRDDLRRERKKLNEHSRQHVDVKSIEAENGRVDVTASMTLSHNGKPDQVHVKIHMRITNGQIEEVHVNYKP,-0.492
2,DEENVKQVERQFKQRDEGNEERVVDQADENASINIGDKRYHGMTDAAKKLVTRLKEIRFERRVVSVTMHNGKFDANYEQTQNTNGNPRTFRYKLVIHMKNGRVKSAHIQEDG,0.062
3,DEENVKVMEHWNKATSNNDEDKHRELADENANFNIGDKRIHGREDFVRWVQELKNRLRIKVEVNSIQAQGDKVTVHYKLKQETNGEPDTRNVKATARIQNGRVRSLTVKDNQ,-0.116
4,DEENVRLARHYADAEARGDHDTIVELLDPNAKVDVGDHEVTGDEHVREELKKKHNQWRAELKDVKASVRGDKLRLKITFVVHINGRPSEQTIDARADIKDGRFKSFSVTIDPQEERHNES,0.395
5,DEEQAHRLNEVLKTGDFERLKDQADPNVRIEVGEKRYHGREQFQKFMTIVQETVDDVHVRSIKVRGDTVNVHMVLNVNGVKAEFIVEAHVDDGRVKEIRFRATDDEQKKNWRKIVQ,1.11
6,DEEQAKKMEHDAKNNNFEKMAEQADPNATAQYGDHRVRGRHEVIDLITHWIEKIDRIEVDSIRVHNGRLEMHFTFEVDGVQVDVVMKAELQNGSLKVLVVTATSEEQQKRLKQAEG,0.234
7,DEEQAKSMVHNMRQNNFEELDKLVDENVRVTVGNKKLHGREEYQKWLENWKKQADRITWDSIDVHGEKIDVEFRAVVNGRTVKQKVDIQFHNGRIKTARYQVTNEELDKIMKEMVE,0.866
8,DEEQAKTIMEKWQKAVQTNNDELADKLYKPNVEWENGDEQRQGKEVVVKMLQKAQKKGVEFQVRKAKVEGDRVEMVYDVRIGDQTVTFTVRMDVHGGRVERVKAEASDEVKKALKKG,0.444
9,DEEQAKTVMEEWAKAVQKGNTEKLKKLYKPDVEWKNGDKKNQGVDQVETQVKKAKDQGVEFQVRKAEVKGNRVRVVYDAKVGDKTVTFTVEFDVDGGKIERVRVEVDEEAKKVQKQG,0.322
10,DEEQARRFREFMEVVRQGDEEKIKRYVDPNARVEVGEETLHGREDIAEWWQKVVRQIRVDITITKMSVSNGKLEIHARAQYEHNGTPEDNRQVIVIQWHNGVAKTIRMEKDG,0.653
11,DEEQDARRIAELLDKVFRNNDEDQFMRLMDPNAEVVVGDKTYRGREQARSAMSEIVKHFDHVHLKLDSFSNHNGRVTASNTLHADSNGKKRKVKVTIHFDVKGDKAVIKHLTIE,0.866
12,DEEQEARDQIKKYLDIFRTGDPDQAKKLFDKDAEVRIGDKHVRGREQISDFFKKLLHKADHVEYTIQDYDVHGDKVTVHLTVVINVNGDERRNTMVIVIKVQGEKERVQSVRVG,1.09
13,DEEQEKHVSHYLELQKHGNEDELLRTVDPNATATVGDKEYHGMKHVAHHLVNTLKRINVKIDRLDLKVEGNTARIDQVRVQKTNGKPDRYRLKQTVQFHNGRFKRVTADVRR,-0.14
14,DEEQEKTIHRAHKHNDEDSFRKLFDKDATMQIGNKTFHGREEVETAVTQWHTQVDHLRVDHMRVTNGKLQIDFTAVINGQRIELRVKIKANNGKVKSVKIQARSEEDNEHLKKELD,0.407
15,DEEQHNFANKVWEAITKGDPDEIRRLFDENVRVKVGNKTITGREELSETMEKIKKHLRMRVQVDEIEFDGDQIRVHFTANLNVNGRPVEYRAELIMHVHDGRVKHMHLRVPEQVERELEK,1.05
16,DEEQHSVADQFNRDLRQGDPDTIRKLLDKDADLRVGDKDLHGRENLIDHMRKMHKKMQVNVDVDSVEDHNGKVIIQATVVEHHNGKPKTYQVDARLHADNGKIKNADFQETS,-0.115
17,DEEQIKDLLERLMRAQQHGDPDRMANYLDENVRVRIGEKDISGREQYKDWNQEQVERIDHFQVHHIEVQGDKAKIDMEMKVDGKRFRFTVRMHIRDGRIDEFRFDPTVQRKIET,0.97
18,DEEQIVNRLWTEAQKNWEEGNETEIANQFDPNARVNVGEKDYHGTEQIMKWVKEILRHADSVRYSIDSIDVNGDTVYVHFTMVMRHNGQKESERIIATMKVDNGEARFTDIKQG,0.737
